These results are taken from article PMC3750474 (2013).

The target in assay [1] is T1, FIV N-terminal capsid domain (feline immunodeficiency virus (FIV)).
T1 chain: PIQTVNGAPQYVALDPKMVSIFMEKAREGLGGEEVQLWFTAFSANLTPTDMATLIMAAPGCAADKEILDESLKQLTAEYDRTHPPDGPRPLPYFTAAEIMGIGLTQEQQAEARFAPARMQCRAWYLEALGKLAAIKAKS
Put plainly: ITC. A general note: ITC needs no label: the signal is the heat of the interaction.

In assay [2] the target is HIV-1 M-group (NL4-3) N-terminal capsid domain (HIV-1 M-group (NL4-3)). The assay can be described thus: ITC.

Numbering of substitutions follows the chain as printed. Names may count otherwise.

B1: cyclophilin domain from human NUP358 (domain or fragment)
chain: ELSKETNPVVFFDVCADGEPLGRITMELFSNIVPRTAENFRALCTGEKGFGFKNSIFHRVIPDFVCQGGDITKHDGTGGQSIYGDKFEDENFDVKHTGPGLLSMANQGQNTNNSQFVITLKKAEHLDFKHVVFGFVKDGMDTVKKIESFGSPKGSVCRRITITECGQI
What is called Kd is the concentration at which binding is half-saturated. A high value points to a looser complex. Molecule B1 showed an equilibrium dissociation constant (Kd) in assay [1] of 290 µM.

B2: NUP358Cyp V113F (domain or fragment)
chain: B1 chain with V117F
In turn, B2 displayed a Kd in assay [2] of 92 µM.

B3: NUP358Cyp V61M/V113F (domain or fragment)
chain: B1 chain with V65M, V117F
For B3, in assay [2], the Kd stood at 31 µM.
